Target: T1, PODXL1-HA(x3)-His(x6) (human, UniProt O00592-1 23-558)
T1 sequence (looked up): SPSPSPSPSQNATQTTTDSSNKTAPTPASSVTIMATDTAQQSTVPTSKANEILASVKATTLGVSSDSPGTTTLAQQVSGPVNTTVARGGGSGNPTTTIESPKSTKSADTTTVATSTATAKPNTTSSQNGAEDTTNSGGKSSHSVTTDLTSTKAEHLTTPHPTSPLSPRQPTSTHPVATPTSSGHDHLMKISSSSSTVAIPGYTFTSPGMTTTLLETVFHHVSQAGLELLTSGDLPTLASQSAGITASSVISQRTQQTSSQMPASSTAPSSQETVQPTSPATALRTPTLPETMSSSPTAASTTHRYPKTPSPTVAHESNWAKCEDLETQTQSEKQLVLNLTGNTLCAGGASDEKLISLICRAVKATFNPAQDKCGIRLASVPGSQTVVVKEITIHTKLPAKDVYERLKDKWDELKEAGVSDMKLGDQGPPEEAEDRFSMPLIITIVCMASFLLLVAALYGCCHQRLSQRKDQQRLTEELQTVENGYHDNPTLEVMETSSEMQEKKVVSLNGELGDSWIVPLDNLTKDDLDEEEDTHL
Experiment: pull-down

B1: C5aR (Complement component 5a receptor 1), C-terminal 3xFlag-6xHis-tagged (receptor, human, UniProt P21730 1-350, looked up)
chain: MDSFNYTTPDYGHYDDKDTLDLNTPVDKTSNTLRVPDILALVIFAVVFLVGVLGNALVVWVTAFEAKRTINAIWFLNLAVADFLSCLALPILFTSIVQHHHWPFGGAACSILPSLILLNMYASILLLATISADRFLLVFKPIWCQNFRGAGLAWIACAVAWGLALLLTIPSFLYRVVREEYFPPKVLCGVDYSHDKRRERAVAIVRLVLGFLWPLLTLTICYTFILLRTWSRRATRSTKTLKVVVAVVASFFIFWLPYQVTGIMMSFLEPSSPTFLLLKKLDSLCVSFAYINCCINPIIYVVAGQGFQGRLRKSLPSLLRNVLTEESVVRESKSFTRSTVDTMAQKTQAV
binding result: binds
